Measurements as given in paper PMC3598503 (2013).
Bridges are numbered along the chain shown (N, C = ends). Where no end group is shown, it is not given here.

Target: T1, p32 (Homo sapiens, UniProt Q07021)
T1 chain: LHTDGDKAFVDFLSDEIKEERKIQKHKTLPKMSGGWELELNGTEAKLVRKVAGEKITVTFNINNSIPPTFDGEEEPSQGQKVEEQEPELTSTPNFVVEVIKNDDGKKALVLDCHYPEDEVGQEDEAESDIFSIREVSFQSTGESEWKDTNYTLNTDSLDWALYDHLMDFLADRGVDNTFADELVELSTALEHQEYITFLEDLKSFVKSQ
Test: SPR

B1: Lyp-1 (peptide)
chain: CGNKRTRGC
modifications: disulfide 1-9
With B1 the Kd was 10.6 nM.
